In the supplement of paper PMC9170038:

System: MS2 coat protein
Assay: apparent KD of MS2 coat protein; designed switch direction (-1 OFF switch, 1 ON switch): -1; higher = weaker reporter binding
Summary of the method: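 Designed RNA switches with common flanks were transcribed on Illumina chips by stalled E. coli RNA polymerase and titrated with SNAP-549-labelled MS2 coat protein, from 0.7 or 1.5 nM doubling to 3 µM, in Tris-HCl pH 7.5 buffer with KCl, MgCl2, BSA, DTT, tRNA and Tween-20. Steps lasted 0.8–1.5 h (lowest) to 10–20 min (highest). Titrations ran without input, with 200 uM small-molecule ligand, or with an oligonucleotide input. Normalised cluster fluorescence was curve-fitted, and apparent KD is the per-design median over clusters.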

[1] = input ligand: microRNA oligo, concentration not stated
[2] = Eterna round: R95, input ligand: microRNA oligo, concentration not stated
[3] = Eterna round: R95, input ligand: FMN 200 uM
[4] = Eterna round: R95, input ligand: none

Row | Sequence | apparent KD of MS2 coat protein (input ligand: FMN 200 uM) [nM] | apparent KD of MS2 coat protein [1] [nM] | apparent KD of MS2 coat protein (input ligand: none) [nM] | apparent KD of MS2 coat protein [2] [nM] | apparent KD of MS2 coat protein [3] [nM] | apparent KD of MS2 coat protein [4] [nM]
1 | CCAGUGUGCUUCAGGACAUGAGGAUCACCCAUGUUCGCAAAAUAGGAUAUUGGGUGUAGGCCGCGCAAGAAGGGUUAUGCGAAC [Disobeus] (Eterna round: R96, puzzle: Exclusion NG 3) | 117 | 79.8 | 83.4 |  |  | 
2 | AGUGCUGGCGCGUCGGUGUUGGUGCAAUAAGCUUGUGAAACAUGAGGAUCACCCAUGUCCUCAUAAGCUCGUCUUAU [salish99_TOv2_r2_085] (Eterna round: R96, puzzle: Sensor v3, turn-off variant 2) | 14.9 | 375 | 17.9 |  |  | 
3 | AAACACCAAGGAUAUACAUGAGGAUCACCCAUGUGGUCCGGCACGGGUCUCGAUUCGAGUAGAAGGUGGAUGGG [Eternabot (L1) Solution 80] (Eterna round: R97, puzzle: Exclusion 3) | 56.7 |  | 76.5 |  |  | 
4 | CGCAUACUAGGAUAUACAUGAGGAUCACCCAUGUCGCCGGGCCCACUCAUACUAAAACGUAGAAGGAGUUUGCC [Enlalari] (puzzle: Exclusion 3) |  |  |  | 16.5 |  | 
5 | GUGUAGUAAGGAUAUAGAAAGAGGGAGUAAGAUAGAGAGUUCUAGAAGGUACAUGAGGAUCACCCAUGUUGGAG [JR_Exclu4_Sub082] (puzzle: Exclusion 4) |  |  |  | 28.9 | 24.9 | 27.8
6 | GUGUACGGAGGAUAUAUGUGGGCAGGCUGACCUGCAGCUUCACAUGAGGAUCACCCAUGUAGAAGGCUGUGCAC [JL-ex2-2.08 Brourd mod] (puzzle: Exclusion 2) |  |  |  | 16.9 |  | 
7 | AAGGAUAGAGGAUAUACAUAGAUACAGAUUCAUGUAGACCUACAUGAGGAUCACCCAUGUAGAAGGCUAUCCUA [Fiskers Ex 2 - 11] (puzzle: Exclusion 2) |  |  |  | 16 |  | 
8 | UAUAUAUAGUAAGGAUAUGUAAUUAUUUUAUUAACAGAAGGUACUGACAUGAGGAUCACCCAUGUUUUAGUGUGGGCAUGUAGA [JMF's solution 47] (Eterna round: R96, puzzle: Exclusion NG 1) |  | 72.6 |  |  |  | 
9 | AAGAAACAUGAGGAUCACCCAUGUGAGGAUAUGACAAAGAAAAGAAAAGAAAGAAGACUCAGAAGGCACAAAGG [salish99-ex1_r3_039] (puzzle: Exclusion 1) |  |  |  | 40.6 | 46.3 | 52
10 | ACUCAAUAGUAGGAUAUCAUCAAACUAUUGUGAUGAGAAGGACUAACAUGAGGAUCACCCAUGUUAACGUGAAG [Mod of Brourd 4 - Jieux - Exclusion 6] (Eterna round: R97, puzzle: Exclusion 6) | 23 |  | 20.3 |  |  | 
11 | UUUUACAUGCUGAGAUCCUACAUGAGGAUCACCCAUGUGGUCCGGAAAAUUUUGUCACCGGAUUUUGCUCGUCUUGU [salish99_S_TOV1_R5_102] (Eterna round: R97, puzzle: Sensor, turn-off variant 1) | 69.5 |  | 112 |  |  | 
12 | UACAUGAGGAUCACCCAUGUUUUGUCGUGUUUGGUACCCGUUUAGGAUAUCGUGUUAUUGGACCGCGAGAAGGAGAGUAUCAUU [Excl-NG3-LRO06] (Eterna round: R96, puzzle: Exclusion NG 3) | 32.2 | 18.4 | 39.9 |  |  | 
13 | UAUUAGCAAGCAAGAUCCUACAUGAGGAUCACCCAUGUGCUCGUCUUAAACUCAGAAUUACUGAGAGCUCGUCUUAU [Winner reversed engineered 24] (Eterna round: R97, puzzle: Sensor, turn-off variant 1) | 443 |  | 515 |  |  | 
14 | CUAAUACAUCAGGAUAUCUUAGCCUAUAGCAUAAGAGAAGGGAUGACAUGAGGAUCACCCAUGUCAAAGGGUGA [eternacac ex6r4 sub20] (Eterna round: R97, puzzle: Exclusion 6) | 304 |  | 929 |  |  | 
15 | GUGAAACAUGAGGAUCACCCAUGUGAGGAUAUGAUUAAGUAAUGAUGAAAGUAUAUAUUCAGAAGGCACAAUGG [Mat - Mod of JL D73] (puzzle: Exclusion 1) |  |  |  | 83.3 | 132 | 152
16 | GCACGGUAAGUGAGGAUAUACCUCUGGAUACAGAGGUAGAAGGCACAUGAGGAUCACCCAUGUUCAAGCCGUGC [Fiskers BMX 4 - 85] (puzzle: Brourd's mod of Exclusion 4) |  |  |  | 13.2 | 14.5 | 14.4

Row | Sequence | apparent KD of MS2 coat protein (input ligand: FMN 200 uM) [nM] | apparent KD of MS2 coat protein [1] [nM] | apparent KD of MS2 coat protein (input ligand: none) [nM] | apparent KD of MS2 coat protein [2] [nM] | apparent KD of MS2 coat protein [3] [nM] | apparent KD of MS2 coat protein [4] [nM]
17 | CACACACAUGAGGAUCACCCAUGUCAGGAUAUCGACACACACCCACACAAACAAACCACGAGAAGGGACGGCCA [E4 1] (Eterna round: R97, puzzle: Exclusion 1) | 37 |  | 48.6 |  |  | 
18 | ACUUGUUGUCCUUGAUAUUACAUGAGGAUCACCCAUGUUAUUGUGAUUAUGAUGUGUAAGUUUGUUGCUCGUCUUAU [JR_STOV1_Sub065] (Eterna round: R97, puzzle: Sensor, turn-off variant 1) | 54.3 |  | 60.4 |  |  | 
19 | GAUUAUGCGAGCUUUAGGGACAUGAGGAUCACCCAUGUUCGUCUUAUUAAUCUGGGUGCGCUAACAUACCUAAAUCU [JMF 52] (puzzle: Sensor v3, turn-off variant 1) |  |  |  | 113 | 56 | 87.4
20 | UAUAUAUAGUAAGGAUAUGUAUUUAUUUUGUAAACAGAAGGUACUGACAUGAGGAUCACCCAUGUUUUAGUGUGGGCAUGUAGA [JMF's solution 22] (Eterna round: R96, puzzle: Exclusion NG 1) | 147 | 78.5 | 141 |  |  | 
21 | UUUUAACAUGAGGAUCACCCAUGUGAGGAUAUCGAAUUUUUUAUUAAUAUUAAUAAAACGAGAAGGCACAUUUU [JMF 16] (puzzle: Exclusion 1) |  |  |  | 55.2 |  | 
22 | CUGGUGUGAGGAUAUCAAAGACCUCGGGAUAGUAGCGAGGAUGAGAAGGCACAUGAGGAUCACCCAUGUAACAA [Edmaer] (puzzle: Exclusion 4) |  |  |  | 21.2 |  | 
23 | AGGCGCUAGUAGGAUAUCUGGAACGGAUUAUAAAGAGAAGGGCUGACAUGAGGAUCACCCAUGUGACCAAUGCG [Eternabot (L1) Solution 50] (Eterna round: R97, puzzle: Exclusion 6) | 41.2 |  | 50.6 |  |  | 
24 | AACUUCUGAGGAUAUACAUAGAUUUACAUGAGGAUCACCCAUGUUCCUCUAUGUAUAAAUGUAGAAGGCAGAAGAA [JL-ex5-4.37 Malcolm mod] (Eterna round: R97, puzzle: Exclusion 5) | 88.6 |  | 18.3 |  |  | 
25 | CAGCUGAAAGUGAGGAUAUCUAGAGCUUCGGCUCUAGAGAAGGCACAUGAGGAUCACCCAUGUGAUCACAGCUG [BmEx4/7-A1] (Eterna round: R97, puzzle: Brourd's mod of Exclusion 4) | 633 |  | 356 |  |  | 
26 | AUUAUAUAGGUAGGAUAUAGAAUAUUAUUUUAACAUGAGGAUCACCCAUGUAACCUUAUGUGUAGCUAGAAGGACCAUUUAUUA [Title] (Eterna round: R96, puzzle: Exclusion NG 2) |  | 64.6 |  |  |  | 
27 | GUCAGCUCGUGAGGAUAUACAUGCGUGCUUCGGCACGAAUUUAAGAUCACAUGAGGAUCACCCAUGUAGAAGGCACGAGCUGAC [ENG2/3-A1] (Eterna round: R96, puzzle: Exclusion NG 2) | 137 | 472 | 591 |  |  | 
28 | GGUAUACAUGAGGAUCACCCAUGUCAGGAUAUGGUAUCCUGUGCCGAAAGGCACAGGUCCAGAAGGGACGAUAG [AK-MS2ROC-r4-exclusion1-5.2] (Eterna round: R97, puzzle: Exclusion 1) | 109 |  | 91.7 |  |  | 
29 | GUUUUCAGACGGAGAUCCUACAUGAGGAUCACCCAUGUCUCACUUGUUUUUUGCUCGUCUUAUCCUCCUCUGUUCUC [Elimod 30 - Jieux - Sensor, turn-off variant 1] (Eterna round: R97, puzzle: Sensor, turn-off variant 1) | 414 |  | 667 |  |  | 
30 | AGUACUGACACGUUGGUGUUAGUACAAUAAGCUUGUGUUACAUGAGGAUCACCCAUGUCCUCAUAAGCUCGUCUUAU [salish99_TOv2_r2_095] (puzzle: Sensor v3, turn-off variant 2) |  |  |  | 38.4 | 117 | 138
31 | GUUAAACAUGAGGAUCACCCAUGUAAGGAUAUGCUGCGGUCGCGAUGAAGUGACUGCAGCAGAAGGUACAAAUG [Mat - Mod of JL D59] (puzzle: Exclusion 1) |  |  |  | 92 | 89.8 | 102
